The record followed here is patent US20230068663A1 (University of Texas, published 2023).

First the molecules themselves.
B1: B2-7 (antibody, V domains shown)
VH: EVQLVESGGGVVQPGRSLRLSCAASGFTISSYGMHWVRQAPGKGLEWVAVISYDGSNKYYADSVKGRFTISRDNSKNTLYLQMNSLRVEDTAVYYCAKDLLLRYFDWSPKYYYNGMDVWGQGTMVTVSS
VL: QSVLTQPPSVSVAPGKTARITCGGNNIGSKSVHWYQQKPGQAPVLVVYDDSDRPSGIPERFSGSNSGNTATLTISRVEAGDEADYYCQVWDSSSDHPGVFGTGTKVTVL
notes: also called B2-7_HC; B2-7_LC
B2: B2-19 (antibody, V domains shown)
VH: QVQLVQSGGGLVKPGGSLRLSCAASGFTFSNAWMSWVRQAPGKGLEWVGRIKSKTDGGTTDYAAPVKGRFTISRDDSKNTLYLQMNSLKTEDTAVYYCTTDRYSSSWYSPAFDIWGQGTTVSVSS
VL: QPVLTQPPSVSEAPRQRVTISCSGSSSNIGNNVVNWYQQLPGKAPKLLIYYDDLLPSGVSDRFSGSKSGTSASLAISGLQSEDEADYYCATWDDSLNGPVFGGGTKLTVL
notes: also called B2-19_HC; B2-19_LC
B3: B2-17 (antibody, V domains shown)
VH: EVQLLDSGPRLLKPSETLSLTCGVSGVSTSSTHWWSWVRQTPGKGLEWIGEILHNGNTNSNPSLKSRVSMSIDKSRNQFSLQLKSMTAADTAVYYCASASPNWGASGAFDAWAQGTMVTVSS
VL: QSVLTQPPSASATPGQRVTISCSGSSSNIGSNPVNWYQQVPGMAPELVMYSDNQRPSGVPDRFSGSNSGTSASLAISGLQSEDEADYYCSTWDDSLNGLVFGTGTKVTVL
notes: also called B2-17_HC; B2-17_LC
B4: B2-15 (antibody, V domains shown)
VH: EVQLVQSGAEVKKSGASVKVSCKSSGYTFTNYGISWVRQAPGQGLEWMGWISGDAGDTKFAQKFQGRVTMTTDTSTTTTYMELRSLRSDDTAVYYCARDGEYIPMFRGFDNYYGLDVWGQGTLVSVSS
VL: QSVLTQPPSASATPGQRVTISCSGRNANIGSNPVNWYQQLPGTAPRLVMYSNNQRPSGVPDRFSGSKSGTSASLAISGLQSEDEADYYCEGWDDSLNGYVFGTGTKVTVL
notes: also called B-15; B2-15_HC
B5: B2-16 (antibody, V domains shown)
VH: QVQLVQSGAEVKKPGSSVKVSCKASGGTFSSYAISWVRQAPGQGLEWMGGIIPIFGTANYAQKFQGRVTITADESTSTAYMELSSLRSEDTAVYYCASGIIPDNPYGMDVWGQGTMVSVSS
VL: DIVMTQSPLSLPVTLGQPASISCTSSQSLVYSDGNTYLNWFHQRPGQSPRRLFYKVSNRASGVPDRFSGSGSGTDFTLKISRVEAEDLGVYYCMQGTHWPVTFGQGTRLEIK
notes: also called B2-16_HC; B2-16_LC

The target of the first experiment is T1, LILRB2 chimeric receptor on LILRB2 reporter cells (extracellular domain of LILRB2 fused with … (UniProt Q8N423 22-460)).
T1 construct: extracellular domain;domain: transmembrane/intracellular domains; associates with DAP12; also called LILRB2-expressing reporter cells
The experiment in a line: flow cytometry, LILRB2 reporter cells. Background: Flow cytometry measures light scatter and fluorescence of single cells or particles in a stream.
As to B1, the “% of cells anti-hIgG APC+” value came out at 94.2%.
Same read-out and setting: in the case of B2 it was 95.3%.
On to B3, for which the “% of cells anti-hIgG APC+” value was 94.3%.
Regarding B4, the “% of cells anti-hIgG APC+” value came to 94.3%.
Still for that read-out and setting: the figure for B5 is 95%.

The next experiment deals with T2, full length human LILRB2 stably expressed on HEK293 cells (human, UniProt Q8N423 22-597).
T2 construct: whole, on cells; also called HEK293_LILRB2
The experiment can be described thus: competition flow cytometry, inhibition of HLA-G-His binding to HEK293 cells expressing LILRB2. Here is the method:
FIG. 33. […] All incubations were performed for 30 minutes at 4° C. Data shown is averaged geometric mean of fluorescence intensity ± standard error of the mean (s.e.m.) from duplicate samples acquired in a flow cytometer (BD FACS Celesta).
For the molecule B1, the IC50 (commonly the midpoint of a concentration-inhibition curve) turned out to be 0.507 µg/mL.
B2 gave an IC50 of 0.583 µg/mL.
Molecule B3 returned an IC50 of 0.209 µg/mL.
In turn, B4 registered a half-maximal inhibitory concentration (IC50) of 0.16 µg/mL.
Same read-out and setting: the figure for B5 is 0.915 µg/mL.

A further experiment has as its target T2, full length human LILRB2 stably …. The experiment can be described thus: competition flow cytometry, inhibition of SEMA4A-hFc-AF647 binding to HEK293_LILRB2 cells. Here is the method:
FIG. 34. […] Incubation was performed for 30 minutes at 4° C. Data shown is averaged geometric mean of fluorescence intensity ± standard error of the mean (s.e.m.) from duplicate samples acquired in a flow cytometer (BD FACS Celesta).
B1 had an IC50 of 2.66 µg/mL.
B2 returned an IC50 of 2.12 µg/mL.
The molecule B3 came in with a half-maximal inhibitory concentration (IC50) of 0.657 µg/mL.
Still for that read-out and setting: in the case of B4 it was 0.482 µg/mL; in that of B5, 3.19 µg/mL.

Another experiment has the same target. The experiment in a line: flow cytometry, HEK293 cells expressing full length human LILRB2. How it is done: FIG. 31. Binding of LILRB2 antibodies on HEK293 stably expressing full length human LILRB2. Fifty thousand cells were incubated with a dilution series (40-0.0006 μg/mL) of LILRB2 antibodies in a final volume of 100 μL. Bound antibodies were detected with anti-human Fc-specific secondary antibody conjugated to AF647. All incubations were performed for 30 minutes at 4° C. Data shown is averaged geometric mean fluorescence intensity ± standard error of the mean (s.e.m.) after sample acquisition (in duplicates) in flow cytometer (BD FACS Celesta) and subtracted by background fluorescence of samples incubated with secondary antibody only.
In the case of B1, the EC50 – broadly, the concentration at which the effect is half-maximal – is 0.212 µg/mL.
B2: the midpoint of the response, the EC50, lay at 0.208 µg/mL.
On to B3, for which the EC50 came out at 0.105 µg/mL.
Regarding B4, a half-maximal effect (EC50) was put at 0.101 µg/mL.
Still for that read-out and setting: in the case of B5 it was 0.277 µg/mL.
